± gives the uncertainty stated by the source.
B1: Chromodomain-helicase-DNA-binding protein 5, residues 411 to 463; numbered along this chain, Q8TDI0 (parent)
chain: EEDDHMEFCRVCKDGGELLCCDACPSSYHLHCLNPPLPEIPNGEWLCPRCTCP

Variants of: B1
Assay: abundance fitness (aPCA) (normalised: wild type 0, dead -1); higher = more abundant; growth selection in yeast, the domain comes from the species named
Details: Homo sapiens

In order of falling abundance fitness:
1. H31F  0.516 ± 0.14
2. A23S  0.301 ± 0.1
3. L46N  0.294 ± 0.12
4. P48D  0.212 ± 0.11
5. P48E  0.177 ± 0.11
6. P38Y  0.17 ± 0.19
7. S26N  0.167 ± 0.37
8. R49E  0.148 ± 0.054
9. E39P  0.139 ± 0.12
10. M6T  0.136 ± 0.096
11. E39N  0.116 ± 0.18
12. I40T  0.113 ± 0.13
13. R49T  0.112 ± 0.069
14. D22Q  0.099 ± 0.048
15. G15D  0.098 ± 0.095
16. N34S  0.097 ± 0.06
17. E7C  0.095 ± 0.13
18. D22N  0.093 ± 0.053
19. A23K  0.092 ± 0.093
20. E39S  0.091 ± 0.07
21. H31G  0.089 ± 0.079
22. M6F  0.084 ± 0.092
23. A23T  0.08 ± 0.054
24. G15F  0.079 ± 0.12
25. K13N  0.075 ± 0.1
26. H31E  0.074 ± 0.093
27. G15A  0.07 ± 0.084
28. A23L  0.068 ± 0.069
29. V11D  0.062 ± 0.081
30. D22E  0.061 ± 0.077
31. L46S  0.061 ± 0.059
32. M6A  0.059 ± 0.074
33. D22A  0.05 ± 0.045
34. D22G  0.049 ± 0.05
35. G15Q  0.047 ± 0.1
36. N34K  0.046 ± 0.1
37. R49S  0.04 ± 0.055
38. G15T  0.036 ± 0.062
39. R49V  0.033 ± 0.044
40. E17Q  0.032 ± 0.068
41. P48C  0.023 ± 0.12
42. S26V  0.02 ± 0.063
43. K13A  0.015 ± 0.064
44. R49N  0.013 ± 0.1
45. M6I  0.012 ± 0.13
46. S26E  0.011 ± 0.068
47. S26D  0.011 ± 0.099
48. D22P  0.008 ± 0.055
49. D22H  0.005 ± 0.054
50. K13G  -0.008 ± 0.051
51. V11M  -0.008 ± 0.058
52. V11Q  -0.012 ± 0.1
53. P38H  -0.016 ± 0.27
54. A23R  -0.022 ± 0.088
55. G16S  -0.023 ± 0.11
56. L46A  -0.027 ± 0.07
57. E7R  -0.027 ± 0.074
58. H31K  -0.029 ± 0.1
59. L46R  -0.034 ± 0.06
60. N34E  -0.036 ± 0.069
61. E2L  -0.038 ± 0.062
62. D22I  -0.04 ± 0.068
63. E2R  -0.042 ± 0.085
64. V11Y  -0.056 ± 0.076
65. I40S  -0.058 ± 0.13
66. D22Y  -0.059 ± 0.044
67. G15V  -0.061 ± 0.092
68. N34V  -0.067 ± 0.073
69. K13R  -0.068 ± 0.062
70. N34C  -0.074 ± 0.1
71. D22W  -0.082 ± 0.064
72. P38F  -0.083 ± 0.21
73. H31M  -0.088 ± 0.1
74. V11L  -0.1 ± 0.053
75. L46T  -0.102 ± 0.058
76. I40K  -0.104 ± 0.18
77. E39K  -0.104 ± 0.12
78. S26C  -0.107 ± 0.054
79. G15I  -0.112 ± 0.14
80. E39M  -0.113 ± 0.22
81. M6L  -0.121 ± 0.061
82. E2V  -0.125 ± 0.081
83. I40E  -0.129 ± 0.11
84. E39I  -0.138 ± 0.23
85. N34Y  -0.139 ± 0.17
86. G16I  -0.145 ± 0.32
87. P48Y  -0.149 ± 0.059
88. G15L  -0.151 ± 0.064
89. L46H  -0.152 ± 0.11
90. N34G  -0.169 ± 0.063
91. E17C  -0.187 ± 0.074
92. E2A  -0.194 ± 0.091
93. I40A  -0.206 ± 0.12
94. E7F  -0.224 ± 0.17
95. M6D  -0.228 ± 0.095
96. E2P  -0.228 ± 0.088
97. E17P  -0.239 ± 0.052
98. E7W  -0.247 ± 0.067
99. K13H  -0.265 ± 0.074
100. E7H  -0.278 ± 0.11
101. C47N  -0.285 ± 0.17
102. K13W  -0.299 ± 0.059
103. G16M  -0.301 ± 0.13
104. P48I  -0.312 ± 0.24
105. E7K  -0.316 ± 0.094
106. A23M  -0.324 ± 0.13
107. G16V  -0.36 ± 0.063
108. K13Y  -0.368 ± 0.12
109. G16N  -0.369 ± 0.4
110. P48M  -0.389 ± 0.09
111. H31Q  -0.436 ± 0.15
112. C24K  -0.437 ± 0.12
113. E39C  -0.438 ± 0.37
114. W45A  -0.45 ± 0.058
115. W45G  -0.457 ± 0.045
116. W45S  -0.459 ± 0.071
117. N34P  -0.463 ± 0.14
118. W45P  -0.472 ± 0.067
119. A23P  -0.488 ± 0.22
120. L46G  -0.502 ± 0.081
121. W45Q  -0.506 ± 0.061
122. W45L  -0.52 ± 0.047
123. W45E  -0.523 ± 0.083
124. I40D  -0.534 ± 0.35
125. C12W  -0.552 ± 0.11
126. P38M  -0.563 ± 0.44
127. C12D  -0.574 ± 0.048
128. W45V  -0.579 ± 0.046
129. C24V  -0.589 ± 0.072
130. W45F  -0.593 ± 0.2
131. C9D  -0.595 ± 0.1
132. G16A  -0.629 ± 0.17
133. P38C  -0.63 ± 0.43
134. I40W  -0.633 ± 0.39
135. C21Q  -0.633 ± 0.079
136. C21K  -0.641 ± 0.088
137. C32K  -0.66 ± 0.14
138. W45I  -0.667 ± 0.16
139. C47D  -0.678 ± 0.15
140. W45T  -0.7 ± 0.082
141. A23F  -0.708 ± 0.32
142. C9F  -0.715 ± 0.18
143. C47L  -0.716 ± 0.052
144. C24G  -0.723 ± 0.1
145. W45D  -0.761 ± 0.18
146. C32A  -0.768 ± 0.11
147. C12R  -0.783 ± 0.082
148. C21D  -0.791 ± 0.1
149. C24P  -0.791 ± 0.24
150. V11P  -0.795 ± 0.12
151. G16P  -0.832 ± 0.15
152. C47K  -0.848 ± 0.21
153. C12N  -0.852 ± 0.21
154. C9L  -0.861 ± 0.078
155. C24I  -0.886 ± 0.3
156. C47P  -0.899 ± 0.085
157. C12M  -0.923 ± 0.071
158. C21V  -0.932 ± 0.054
159. C12Q  -0.938 ± 0.19
160. C9P  -0.94 ± 0.13
161. C12S  -0.947 ± 0.07
162. C32W  -0.967 ± 0.13
163. C12L  -0.971 ± 0.079
164. C9Y  -0.977 ± 0.068
165. C21M  -1.08 ± 0.23
166. C24L  -1.15 ± 0.15
167. C9H  -1.5 ± 0.4

From the Human Domainome abundance scans (Beltran et al. 2025)
